Paper PMC3672946 (Nature, 2013)
One block for each binder: values may come before it.

B3: Nqo14 (natural protein, Thermus thermophilus, UniProt Q56229 1-427, looked up)
chain: MTLAILAVFSVALTLLGFVLPPQGVKRATLLGLALALASLLLTWGKPFAFGPYAVDGVSQVFTLLALLGALWTVGLVRSGRFEFYLLVLYAALGMHLLASTRHLLLMLVALEALSLPLYALATWRRGQGLEAALKYFLLGALAAAFFLYGAALFYGATGSLVLGAPGEGPLYALALGLLLVGLGFKAALAPFHFWTPDVYQGSPTPVVLFMATSVKAAAFAALLRVAAPPEALALLVALSVVVGNLAALAQKEAKRLLAYSSIAHAGYMALALYTGNAQALGFYLLTYVLATGLAFAVLSQISPDRVPLEALRGLYRKDPLLGLAFLVAMLSLLGLPPLAGFWGKYLAFAEAARAGAWGVLVLALVTSAVSAYYYLGLGLAVFARPEETPFRPGPPWARAAVVAAGVLLLALGLLPGLVLPALAAGG

Tests used:
Experiment in all cases: crystal structure
Nqo14 = biological target: B3
Nqo10 = biological target: T1, Nqo10 (Thermus thermophilus, UniProt Q56225 1-176)
T1 sequence (looked up): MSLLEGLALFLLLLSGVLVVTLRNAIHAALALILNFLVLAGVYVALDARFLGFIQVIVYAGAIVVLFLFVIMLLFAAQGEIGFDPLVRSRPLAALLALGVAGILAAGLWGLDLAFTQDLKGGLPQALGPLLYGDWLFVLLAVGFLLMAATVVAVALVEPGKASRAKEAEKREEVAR

Nqo12 = biological target: T2, Nqo12 (Thermus thermophilus, UniProt Q56227 1-606)
T2 sequence (looked up): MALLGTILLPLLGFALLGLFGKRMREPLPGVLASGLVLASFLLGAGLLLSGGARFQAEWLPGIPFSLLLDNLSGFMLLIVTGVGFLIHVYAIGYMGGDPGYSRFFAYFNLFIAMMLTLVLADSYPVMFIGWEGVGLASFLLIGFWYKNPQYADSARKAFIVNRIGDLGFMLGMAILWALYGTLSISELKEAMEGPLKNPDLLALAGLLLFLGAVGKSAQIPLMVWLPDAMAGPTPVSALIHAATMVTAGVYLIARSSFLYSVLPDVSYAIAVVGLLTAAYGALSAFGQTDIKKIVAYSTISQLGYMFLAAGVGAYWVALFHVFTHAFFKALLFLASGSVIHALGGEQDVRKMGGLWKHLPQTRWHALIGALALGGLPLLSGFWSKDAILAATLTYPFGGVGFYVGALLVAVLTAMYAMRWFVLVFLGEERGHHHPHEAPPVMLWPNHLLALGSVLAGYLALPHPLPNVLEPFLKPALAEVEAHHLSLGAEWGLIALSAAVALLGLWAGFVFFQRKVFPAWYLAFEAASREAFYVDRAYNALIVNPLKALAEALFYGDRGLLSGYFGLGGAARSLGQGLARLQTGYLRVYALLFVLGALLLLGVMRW

Nqo8 = biological target: T3, Nqo8 (Thermus thermophilus, UniProt Q60019 1-365)
T3 sequence (looked up): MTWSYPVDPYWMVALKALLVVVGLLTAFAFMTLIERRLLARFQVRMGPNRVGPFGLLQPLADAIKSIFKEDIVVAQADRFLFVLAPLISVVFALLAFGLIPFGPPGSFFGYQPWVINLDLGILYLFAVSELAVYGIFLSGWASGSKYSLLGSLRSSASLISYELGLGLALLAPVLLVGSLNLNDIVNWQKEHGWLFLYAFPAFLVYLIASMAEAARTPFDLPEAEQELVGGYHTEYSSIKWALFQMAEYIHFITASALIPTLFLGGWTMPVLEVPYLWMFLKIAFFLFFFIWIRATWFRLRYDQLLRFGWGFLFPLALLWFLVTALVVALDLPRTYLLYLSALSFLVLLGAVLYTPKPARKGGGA

binding result (Nqo14): binds | binding result (Nqo10): binds
B1: Nqo11 (natural protein, Thermus thermophilus, UniProt Q56226 1-95, looked up)
chain: MSYLLTSALLFALGVYGVLTRRTAILVFLSIELMLNAANLSLVGFARAYGLDGQVAALMVIAVAAAEVAVGLGLIVAIFRHRESTAVDDLSELRG

binding result (Nqo12): binds
B2: Nqo13 (natural protein, Thermus thermophilus, UniProt Q56228 1-469, looked up)
chain: MVVLAVLLPVVFGALLLLGLPRALGVLGAGLSFLLNLYLFLTHPGGVAHAFQAPLLPGAGVYWAFGLDGLSALFFLTIALTVFLGALVARVEGRFLGLALLMEGLLLGLFAARDLLVFYVFFEAALIPALLMLYLYGGEGRTRALYTFVLFTLVGSLPMLAAVLGARLLSGSPTFLLEDLLAHPLQEEAAFWVFLGFALAFAIKTPLFPLHAWLPPFHQENHPSGLADALGTLYKVGVFAFFRFAIPLAPEGFAQAQGLLLFLAALSALYGAWVAFAAKDFKTLLAYAGLSHMGVAALGVFSGTPEGAMGGLYLLAASGVYTGGLFLLAGRLYERTGTLEIGRYRGLAQSAPGLAALALILFLAMVGLPGLSGFPGEFLTLLGAYKASPWLAALAFLSVIASAAYALTAFQKTFWEEGGSGVKDLAGAEWGFALLSVLALLLMGVFPGYFARGLHPLAEAFAKLLGGGA

Binder: B3
binding result (Nqo12): binds

binding result (Nqo8): binds
B4: Nqo7 (natural protein, Thermus thermophilus, UniProt Q56217 1-119, looked up)
chain: MAPIQEYVGTLIYVGVALFIGVAALLVGALLGPKKPGRAKLMPYESGNDPAGEVKRFPVHFYVVAMLFILFDVEVAFLWPYAVSAGGLGLYGFLGVLAFTLLLFVGFLYEWWKGVMRWH
